The assay deals with HIV-1 CA hexamer (CA A14C/E45C/W184A/M185A mutant) (HIV-1). Briefly: SEC; Superdex 10/300 GL increase column in 50 mM Tris pH 8; elution at 12.5 mL. Background: Size exclusion chromatography separates by hydrodynamic size, large species first.

Consider “HIV-1 CA hexamer (CA A14C/E45C/W184A/M185A mutant) (complex)”, for which the stoichiometry N turned out to be 6.

One may read the stoichiometry N as the number of molecules, sites or subunits per partner or assembly.

For the origin of these results see article PMC11555092.
